From US20240299529A1

Target: human immunoglobulin G (hIgG) (human)
Experiment: sandwich ELISA, hIgG coated on plate, CD64 titrated, monovalent fit

| Substance | Kd [nM] |
| --- | --- |
| Flag-CD64 (from UniProt P12314 16-374) (receptor) | 0.0536 |
| recombinant wild-type CD64 (from UniProt P12314 16-374) (receptor) | 0.0456 |
